From patent US20180148497A1

Legend:
[1] = biological target: cell surface Env of HIV-1 infected (p24+) CD4+ T cells (IMCs subtype AE CM235, subtype B BaL, subtype C 1086.C, as a group); experiment: flow cytometry, indirect staining of p24+ CD4+ T cells infected with BaL, CM235 or 1086.C IMC (FIG. 27)
[2] = biological target: cell surface Env of HIV-1 infected (p24+) CD4+ T cells (IMCs subtype AE CM235, subtype B BaL, subtype C 1086.C, as a group); experiment: flow cytometry, staining of p24+ CD4+ T cells infected with BaL, CM235 or 1086.C IMC (FIG. 27)
[3] = biological target: cell surface Env of HIV-1 infected (p24+) CD4+ T cells (IMCs subtype AE CM235, subtype B BaL, subtype C 1086.C, as a group); experiment: flow cytometry, negative control staining of p24+ IMC-infected CD4+ T cells (FIG. 27)

Substance	% of HIV-1 infected (p24+) CD4+ T cells recognized [3] [%]	other results
7B2 mAb (anti-gp41 cluster I) (antibody)	–	% of HIV-1 infected (p24+) CD4+ T cells recognized [1]: 24 to 38%
HIV-1 × Fluorescein Bi-Specific Diabody (7B2 × 4420) (bispecific antibody)	–	% of HIV-1 infected (p24+) CD4+ T cells recognized [2]: 66 to 78%
Palivizumab mAb (anti-RSV) (antibody)	< 5	–
secondary conjugated Abs (secondary fluoresceinated anti-human IgG Abs) (antibody)	< 5	–
